How the values were obtained:
Conditions in all cases: 20 nM; 72 h
MCF10A [1] = assay: percent viability (nuclei count relative to siNT); higher = more viable cells
Description: (§1)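 After 72 h, cells were fixed and stained with Hoechst and anti-fibrillarin, and nucleoli per nucleus were counted with CellProfiler. Values are plate-adjusted percent effect for the one-nucleolus and 5+ nucleoli phenotypes, normalised to siNT (0%) and to the positive controls siNOL11 or siKIF11 (100%), as the mean of biological triplicates. Percent viability is the nuclei count relative to siNT.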

MCF10A [2] = assay: 5+ nucleoli phenotype percent effect (relative to siNT 0% and siKIF11 100%); higher = more cells with five or more nucleoli
Description: as §1

MCF10A [3] = assay: one-nucleolus phenotype percent effect (relative to siNT 0% and siNOL11 100%); higher = more cells with one nucleolus (ribosome biogenesis inhibition)
Description: as §1

| Sequence | percent viability (MCF10A [1]) | 5+ nucleoli phenotype percent effect (MCF10A [2]) | one-nucleolus phenotype percent effect (MCF10A [3]) |
| --- | --- | --- | --- |
| UGACUAACUCCCACUCUACAG [hsa-miR-6831-3p] | 41.8% | 16.8% | -28.1% |
| UGACUCUGCCUGUAGGCCGGU [hsa-miR-4522] | 16.2% | -19.6% | 23.6% |
| UGACUGAGCUUCUCCCCACAG [hsa-miR-6857-3p] | 34.9% | -17.1% | 32.8% |
| UGACUGCCUCACUGACCACUU [hsa-miR-5002-3p] | 50.5% | -20.8% | -1.84% |
| UGACUUCUACCUCUUCCAAAG [hsa-miR-6505-3p] | 33.6% | -48% | 46.6% |
| UGAGAACCACGUCUGCUCUGAG [hsa-miR-589-5p] | 88.9% | -4.96% | -14.3% |
| UGAGAACUGAAUUCCAUAGGCU [hsa-miR-146b-5p] | 52.1% | -25.8% | 0.774% |
| UGAGAACUGAAUUCCAUGGGUU [hsa-miR-146a-5p] | 51.1% | -31.6% | 9.23% |
| UGAGAACUGACAAAUGUGGUAGG [hsa-miR-7153-5p] | 61.9% | 14% | -18.9% |
| UGAGAAGGCACAGCUUGCACGUGA [hsa-miR-6770-5p] | 36.9% | -3.61% | 34.3% |
| UGAGACAGGCUUAUGCUGCUAU [hsa-miR-4524a-3p] | 21.6% | 8.73% | 24.8% |
| UGAGACCAGGACUGGAUGCACC [hsa-miR-4786-5p] | 42.2% | -0.448% | -5.75% |
| UGAGACCUCUGGGUUCUGAGCU [hsa-miR-769-5p] | 47.4% | 9.63% | 7.1% |
| UGAGAGUGGAAUUCACAGUAUUU [hsa-miR-4693-3p] | 23% | -31.4% | 35.2% |
| UGAGAUGAAGCACUGUAGCUC [hsa-miR-143-3p] | 47.9% | -1.77% | -0.991% |
| UGAGAUGACACUGUAGCU [hsa-miR-4770] | 33.4% | -3.17% | 11.7% |
| UGAGCACCACACAGGCCGGGCGC [hsa-miR-3663-3p] | 58.5% | 12.4% | -6.6% |
| UGAGCCCCUGUGCCGCCCCCAG [hsa-miR-1225-3p] | 98.1% | 19.9% | -16.7% |
| UGAGCCCUGUCCUCCCGCAG [hsa-miR-1233-3p] | 63.8% | 7.25% | -6.71% |
| UGAGCCGAGCUGAGCUUAGCUG [hsa-miR-4537] | 73.5% | -4.47% | -6.98% |
| UGAGCCUCUCCUUCCCUCCAG [hsa-miR-6823-3p] | 31.2% | 12.9% | -2.85% |
| UGAGCGCCUCGACGACAGAGCCG [hsa-miR-339-3p] | 82.2% | 27% | -25.2% |
| UGAGCUAAAUGUGUGCUGGGA [hsa-miR-610] | 131% | 20.7% | -14.8% |
| UGAGCUGCUGUACCAAAAU [hsa-miR-558] | 65.1% | 0.086% | 6.73% |
| UGAGGACAGGGCAAAUUCACGA [hsa-miR-5004-5p] | 36% | -12.8% | 10% |
| UGAGGAGAUCGUCGAGGUUGG [hsa-miR-3150b-3p] | 47.3% | 24.3% | -11.7% |
| UGAGGAGAUGCUGGGACUGA [hsa-miR-4784] | 56.7% | 22.8% | -9% |
| UGAGGAUAUGGCAGGGAAGGGGA [hsa-miR-3679-5p] | 100% | 29.7% | -24.2% |
| UGAGGAUGGAUAGCAAGGAAGCC [hsa-miR-3605-5p] | 69.7% | 12% | -3.45% |
| UGAGGCAGUAGAUUGAAU [hsa-miR-1827] | 16.7% | -33.8% | 60.2% |
